# Measured values published in patent US20110243928A1 (published 2011).
# T1: E. coli-expressed recombinant cynomolgus IL-13 (cynomolgus, UniProt Q5I6E4 21-132 (Macaca thibetana entry))
# T1 chain: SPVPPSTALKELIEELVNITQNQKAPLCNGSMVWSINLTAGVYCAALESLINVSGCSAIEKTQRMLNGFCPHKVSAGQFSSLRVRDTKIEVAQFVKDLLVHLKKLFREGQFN
# T2: alanine scanning peptide 1 (parental sequence peptide) (human, N-terminal biotin)
# T2 construct: also called parental peptide
# T2 peptide: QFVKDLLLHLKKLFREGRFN
# T3: alanine scanning peptide 62 (human, N-terminal biotin)
# T3 peptide: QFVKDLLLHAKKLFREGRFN
# T4: alanine scanning peptide 63 (human, N-terminal biotin)
# T4 construct: the entry already carries the change; also called K103A peptide
# T4 peptide: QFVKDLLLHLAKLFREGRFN
# T5: alanine scanning peptide 64 (human, N-terminal biotin)
# T5 construct: the entry already carries the change; also called K104A peptide
# T5 peptide: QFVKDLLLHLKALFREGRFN
# T6: alanine scanning peptide 65 (human, N-terminal biotin)
# T6 construct: the entry already carries the change; also called L105A peptide
# T6 peptide: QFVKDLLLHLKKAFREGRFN
# T7: alanine scanning peptide 66 (human, N-terminal biotin)
# T7 construct: the entry already carries the change; also called F106A peptide
# T7 peptide: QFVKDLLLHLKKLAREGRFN
# T8: alanine scanning peptide 67 (human, N-terminal biotin)
# T8 construct: the entry already carries the change; also called R107A peptide
# T8 peptide: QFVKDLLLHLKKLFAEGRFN
# T9: alanine scanning peptide 68 (human, N-terminal biotin)
# T9 peptide: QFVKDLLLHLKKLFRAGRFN
# T10: 16mer biotinylated human IL-13 peptide number 24 (human, N-terminal biotin; C-terminal amide)
# T10 construct: format Biotin-SGSG-PEPTIDE-amide; also called Peptide 24
# T10 peptide: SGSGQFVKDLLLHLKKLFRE
# B1: monoclonal antibody 6A1 (antibody, IgG1, V domains shown)
# VH: EIQLQQSVAELVRPGASVRLSCTASGFYIKDTYMHWVIQRPEQGLEWIGTIDPANGNTKYVPKFQGKATITADTSSNTAYLRLSSLTSEDTAIYYCARSIYDDYHYDDYYAMDYWGQGTSVTVSS
# VL: DVLMTQTPLSLPVSLGDQASISCRSSQNIVHINGNTYLEWYLQKPGQSPKLLIYKISDRFSGVPDRFSGSGSGTDFTLKISRVEAEDLGVYYCFQGSHVPWTFGGGTKLEIK
# notes: also called 6A1 parental mAb; parental mouse mAb 6A1
# B2: L1+A1 (antibody, human IgG1, kappa, V domains shown)
# VH: QVQLVQSGAEVKKPGSSVKVSCKASGFYIKDTYMHWVRQAPGQGLEWMGTIDPANGNTKYVPKFQGRVTITADESTSTAYMELSSLRSEDTAVYYCARSIYDDYHYDDYYAMDYWGQGTLVTVSS
# VL: DIVMTQSPLSLPVTPGEPASISCRSSQNIVHINGNTYLEWYLQKPGQSPRLLIYKISDRFSGVPDRFSGSGSGTDFTLKISRVEADDVGIYYCFQGSHVPWTFGQGTKLEIKR
# notes: Humanised 6A1, VH construct A1 and VL construct L1, human gamma1 wild type / kappa constant regions; also called A1L1; humanised anti-IL-13 mAb L1+A1
# How the values were obtained:
# [1] = biological target: T11, E. coli-expressed recombinant human IL-13 (human, UniProt P35225 35-146); experiment: cell-based or functional assay
# T11 sequence (P35225 other isoform, or with tags, fused parts or gaps): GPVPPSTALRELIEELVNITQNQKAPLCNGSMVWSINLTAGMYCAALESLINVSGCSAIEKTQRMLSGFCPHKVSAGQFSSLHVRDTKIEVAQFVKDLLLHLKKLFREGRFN
# [2] = biological target: T1, E. coli-expressed recombinant …; experiment: cell-based or functional assay
# [3] = biological target: E. coli-expressed recombinant Q130 human IL-13 (human, UniProt P35225 35-146, limits assumed); experiment: cell-based or functional assay
# Sequence of E. coli-expressed recombinant Q130 human IL-13 (P35225 35-146 limits assumed): as the sequence (P35225 other isoform, or with tags, fused parts or gaps) above, with R110Q counted along it
# [4] = biological target: mammalian-expressed (CHO cell) human IL-13 (human, UniProt P35225 35-146, limits assumed); experiment: cell-based or functional assay
# Sequence of mammalian-expressed (CHO cell) human IL-13 (P35225 other isoform, or with tags, fused parts or gaps limits assumed): as the sequence (P35225 other isoform, or with tags, fused parts or gaps) above
# [5] = biological target: T11, E. coli-expressed recombinant human …; experiment: human IL-13 binding sandwich ELISA
# [6] = biological target: T2, alanine scanning peptide 1 (parental …); experiment: alanine scanning peptide ELISA, n=2
# Text: (§1) An ELISA method was used to detect binding of immobilised biotinylated peptide to the parental mAb 6A1 and L1+A1.
# (§2) This was to determine if there was any major plate-to-plate variation and in both cases, there was no apparent variation.
# [7] = biological target: T3, alanine scanning peptide 62; experiment: alanine scanning peptide ELISA, n=2
# Text: as §1, §2
# [8] = biological target: T4, alanine scanning peptide 63; experiment: alanine scanning peptide ELISA, n=2
# Text: as §1, §2
# [9] = biological target: T5, alanine scanning peptide 64; experiment: alanine scanning peptide ELISA, n=2
# Text: as §1, §2
# [10] = biological target: T6, alanine scanning peptide 65; experiment: alanine scanning peptide ELISA, n=2
# Text: as §1, §2
# [11] = biological target: T7, alanine scanning peptide 66; experiment: alanine scanning peptide ELISA, n=2
# Text: as §1, §2
# [12] = biological target: T8, alanine scanning peptide 67; experiment: alanine scanning peptide ELISA, n=2
# Text: as §1, §2
# [13] = biological target: T9, alanine scanning peptide 68; experiment: alanine scanning peptide ELISA, n=2
# Text: as §1, §2
# [14] = biological target: T1, E. coli-expressed recombinant …; experiment: cynomolgus IL-13 binding sandwich ELISA
# [15] = biological target: T12, native (PBMC derived) human IL-13 (human, UniProt P35225 35-146, limits assumed); experiment: ELISA on Th2 cell supernatant read against a standard curve
# T12 construct: IL-13 in supernatant of stimulated human CD4+ Th2 cells; also called native human IL-13; Native IL-13
# T12 sequence (P35225 other isoform, or with tags, fused parts or gaps limits assumed): as the sequence (P35225 other isoform, or with tags, fused parts or gaps) above
# [16] = biological target: T10, 16mer biotinylated human IL-13 peptide …; experiment: BIAcore analysis 3, antibody over biotinylated peptide on SA chip
# Protocol: Completed for the 16mer biotinylated human IL-13 peptide number 24 (identified as the linear binding epitope for parental mAb 6A1, see section 6.7). Note that the absolute KD values obtained for binding to peptide ligands are often quite different to those seen for binding to whole protein targets.
# The kinetics analysis was performed on a Biacore 3000 machine using direct binding of antibody to immobilised IL-13 peptide. Briefly, IL-13 biotinylated peptide was captured using a Biacore SA (strepavidin) Biosensor chip. The antibodies were then passed over the sensor surface at various concentrations. The subsequent binding curves were analysed with Biacore analysis software BIAeval 4.1 to determine kinetics. The experiment was carried out using Biacore HBS-EP buffer
# [17] = biological target: T13, E. coli-expressed recombinant det-1 tagged human IL-13 (human, UniProt P35225 35-146); experiment: competition ELISA: inhibition of det-1 tagged human IL-13 binding to human IL-13Rα1-Fc
# T13 construct: also called Det-1 tagged human IL-13 (made in-house); not shown: det-1 tag
# T13 sequence (P35225 other isoform, or with tags, fused parts or gaps): as above
# [18] = biological target: T13, E. coli-expressed recombinant det-1 …; experiment: competition ELISA: inhibition of det-1 tagged human IL-13 binding to human IL-13Rα2-Fc
Binder,Mean ND50 for 2 assays [1] [µg/mL],Mean ND50 for 2 assays [2] [µg/mL],Mean ND50 for 2 assays [3] [µg/mL],Mean ND50 for 2 assays [4] [µg/mL],EC50 [5] [µg/mL],Average A490 [6] [A490],Average A490 [7] [A490],Average A490 [8] [A490],Average A490 [9] [A490],Average A490 [10] [A490],Average A490 [11] [A490],Average A490 [12] [A490],Average A490 [13] [A490],EC50 [14] [µg/mL],Native IL-13 (ng/ml) detected in Th2 supernatant [15] [ng/mL],Kd [16] [nM],koff [16] [s⁻¹],kon [16] [M⁻¹ s⁻¹],IC50 [17] [µg/mL],IC50 [18] [µg/mL]
B1,0.193,0.078,0.213,0.44,0.049,3.54,3.49,3.28,1.47,3.85,3.6,0.595,3.58,0.039,22.5,3.11,0.000915,295000,0.039,0.02
B2,0.428,0.078,0.438,0.975,0.018,2.85,2.83,2.65,1.82,3.02,2.84,0.816,2.81,0.021,25.1,9.03,0.0017,195000,0.044,0.113
